Experimental data as given in PMC9482650, “Quantitative fragmentomics allow affinity mapping of interactomes” (Nature Communications, 2022).

T1: APBA1_1, Q02410
T1 sequence (Q02410 651-752, limits assumed, looked up): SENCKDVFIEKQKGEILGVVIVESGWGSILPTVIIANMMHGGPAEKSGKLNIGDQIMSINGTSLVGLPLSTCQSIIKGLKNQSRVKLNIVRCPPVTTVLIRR

T2: APBA2_1, Q99767
T2 sequence (Q99767 563-664, limits assumed, looked up): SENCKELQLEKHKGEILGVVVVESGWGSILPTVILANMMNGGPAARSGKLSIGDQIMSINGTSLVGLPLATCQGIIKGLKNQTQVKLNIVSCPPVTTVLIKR

T3: APBA2_2, Q99767
T3 sequence (Q99767 654-744, limits assumed, looked up): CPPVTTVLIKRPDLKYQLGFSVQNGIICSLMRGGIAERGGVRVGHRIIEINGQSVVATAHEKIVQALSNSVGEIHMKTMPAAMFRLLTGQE

T4: APBA3_1, O96018
T4 sequence (O96018 389-490, limits assumed, looked up): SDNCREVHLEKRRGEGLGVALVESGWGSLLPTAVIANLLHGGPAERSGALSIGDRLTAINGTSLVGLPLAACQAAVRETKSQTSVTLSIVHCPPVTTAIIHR

T5: DFNB31_3, Q9P202
T5 sequence (Q9P202 811-907, limits assumed, looked up): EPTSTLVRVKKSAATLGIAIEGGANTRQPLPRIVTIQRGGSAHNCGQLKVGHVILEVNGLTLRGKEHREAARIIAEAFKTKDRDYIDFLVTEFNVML

T6: DVL3, Q92997
T6 sequence (Q92997 244-331, limits assumed, looked up): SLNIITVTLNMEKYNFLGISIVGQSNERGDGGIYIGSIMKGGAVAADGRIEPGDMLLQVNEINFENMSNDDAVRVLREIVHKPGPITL

T7: HTRA4, P83105
T7 sequence (P83105 378-476, limits assumed, looked up): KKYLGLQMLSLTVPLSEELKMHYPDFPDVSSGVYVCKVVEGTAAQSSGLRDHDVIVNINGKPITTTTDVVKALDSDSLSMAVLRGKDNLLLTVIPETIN

T8: LIN7B, Q9HAP6
T8 sequence (Q9HAP6 88-185, limits assumed, looked up): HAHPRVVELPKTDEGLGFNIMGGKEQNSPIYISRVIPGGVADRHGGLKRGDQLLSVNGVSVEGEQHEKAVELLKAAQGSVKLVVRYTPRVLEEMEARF

T9: MPDZ_10, O75970
T9 sequence (O75970 1624-1722, limits assumed, looked up): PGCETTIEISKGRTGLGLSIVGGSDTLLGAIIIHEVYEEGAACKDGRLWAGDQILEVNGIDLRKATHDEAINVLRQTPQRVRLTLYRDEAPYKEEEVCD

T10: NHERF3_4, Q5T2W1
T10 sequence (Q5T2W1 373-468, limits assumed, looked up): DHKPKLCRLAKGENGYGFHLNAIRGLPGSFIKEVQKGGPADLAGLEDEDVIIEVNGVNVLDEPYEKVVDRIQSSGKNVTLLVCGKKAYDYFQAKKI

T11: PDZD7_3, Q9H5P4
T11 sequence (Q9H5P4 857-944, limits assumed, looked up): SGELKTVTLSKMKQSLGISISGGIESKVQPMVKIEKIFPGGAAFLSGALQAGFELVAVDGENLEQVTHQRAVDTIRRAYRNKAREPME

T12: SIPA1L2, Q9P2F8
T12 sequence (Q9P2F8 945-1036, limits assumed, looked up): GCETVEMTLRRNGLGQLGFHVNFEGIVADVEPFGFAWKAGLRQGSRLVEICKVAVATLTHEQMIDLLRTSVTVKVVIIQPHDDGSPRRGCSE

T13: SYNJ2BP, P57105
T13 sequence (P57105 8-110, limits assumed, looked up): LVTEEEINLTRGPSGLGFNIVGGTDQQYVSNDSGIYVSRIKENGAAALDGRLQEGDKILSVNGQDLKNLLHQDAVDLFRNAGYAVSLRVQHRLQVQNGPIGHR


Columns and labels:
Test in all cases: holdup assay
Design in all cases: key: below the threshold = too weak to quantify, mostly under pKd 3.1 to 4
Conditions in all cases: plain residues with an end cap or a label only (N-terminal biotin on a linker: ado-ado)
APBA1_1, Q02410 = target: T1, APBA1_1, Q02410
APBA2_1, Q99767 = target: T2, APBA2_1, Q99767
APBA2_2, Q99767 = target: T3, APBA2_2, Q99767
APBA3_1, O96018 = target: T4, APBA3_1, O96018
DFNB31_3, Q9P202 = target: T5, DFNB31_3, Q9P202
DVL3, Q92997 = target: T6, DVL3, Q92997
FRMPD4, Q14CM0 = target: FRMPD4, Q14CM0
GRASP, Q7Z6J2 = target: GRASP, Q7Z6J2
GRIP2_3, Q9C0E4 = target: GRIP2_3, Q9C0E4
GRIP2_7, Q9C0E4 = target: GRIP2_7, Q9C0E4
HTRA4, P83105 = target: T7, HTRA4, P83105
Inadl_2, Q8NI35 = target: Inadl_2, Q8NI35
LIN7B, Q9HAP6 = target: T8, LIN7B, Q9HAP6
MAGI2_4, Q86UL8 = target: MAGI2_4, Q86UL8
MAGI3_2, Q5TCQ9 = target: MAGI3_2, Q5TCQ9
MAST2, Q6P0Q8 = target: MAST2, Q6P0Q8
MPDZ_10, O75970 = target: T9, MPDZ_10, O75970
NHERF3_4, Q5T2W1 = target: T10, NHERF3_4, Q5T2W1
PDLIM1, O00151 = target: PDLIM1, O00151
PDZD7_3, Q9H5P4 = target: T11, PDZD7_3, Q9H5P4
SIPA1L2, Q9P2F8 = target: T12, SIPA1L2, Q9P2F8
SNX27, Q96L92 = target: SNX27, Q96L92
SYNJ2BP, P57105 = target: T13, SYNJ2BP, P57105
TJP2_1, Q9UDY2 = target: TJP2_1, Q9UDY2
TJP2_1, Q9UDY2, sequence (Q9UDY2 24-128): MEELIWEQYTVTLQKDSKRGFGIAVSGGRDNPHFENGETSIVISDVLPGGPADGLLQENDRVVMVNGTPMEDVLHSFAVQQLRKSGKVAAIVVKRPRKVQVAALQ

GRIP2_3, Q9C0E4, sequence (Q9C0E4 238-339): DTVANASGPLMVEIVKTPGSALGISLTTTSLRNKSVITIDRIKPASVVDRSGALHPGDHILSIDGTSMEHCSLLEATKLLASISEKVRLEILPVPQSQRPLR
MAGI3_2, Q5TCQ9, sequence (Q5TCQ9 398-503): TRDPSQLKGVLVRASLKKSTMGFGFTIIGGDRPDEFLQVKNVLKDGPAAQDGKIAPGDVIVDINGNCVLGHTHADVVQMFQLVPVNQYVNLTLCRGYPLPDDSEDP
PDLIM1, O00151, sequence (O00151 1-87): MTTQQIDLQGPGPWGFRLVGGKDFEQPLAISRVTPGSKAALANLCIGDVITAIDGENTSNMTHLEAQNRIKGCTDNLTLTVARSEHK
Inadl_2, Q8NI35, sequence (Q8NI35 238-335): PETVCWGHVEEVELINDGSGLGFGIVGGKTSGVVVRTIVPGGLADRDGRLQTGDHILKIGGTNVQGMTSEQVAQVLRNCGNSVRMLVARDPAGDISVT
MAST2, Q6P0Q8, sequence (Q6P0Q8 1099-1202): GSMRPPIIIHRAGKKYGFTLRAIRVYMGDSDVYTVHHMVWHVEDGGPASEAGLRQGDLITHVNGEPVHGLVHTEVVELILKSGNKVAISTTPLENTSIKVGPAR
GRASP, Q7Z6J2, sequence (Q7Z6J2 96-193): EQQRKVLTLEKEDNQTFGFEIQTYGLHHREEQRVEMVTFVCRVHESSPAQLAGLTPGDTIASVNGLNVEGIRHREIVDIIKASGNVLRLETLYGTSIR
FRMPD4, Q14CM0, sequence (Q14CM0 67-160): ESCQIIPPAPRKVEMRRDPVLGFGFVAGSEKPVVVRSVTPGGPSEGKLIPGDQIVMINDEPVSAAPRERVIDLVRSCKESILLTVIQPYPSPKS
GRIP2_7, Q9C0E4, sequence (Q9C0E4 934-1023): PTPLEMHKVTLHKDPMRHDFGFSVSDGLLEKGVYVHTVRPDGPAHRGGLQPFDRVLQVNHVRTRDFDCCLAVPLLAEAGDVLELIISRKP
MAGI2_4, Q86UL8, sequence (Q86UL8 772-865): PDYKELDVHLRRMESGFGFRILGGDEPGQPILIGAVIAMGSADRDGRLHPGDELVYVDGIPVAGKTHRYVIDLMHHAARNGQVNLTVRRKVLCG

Binder | pKd (APBA1_1, Q02410) | pKd (APBA2_1, Q99767) | pKd (APBA2_2, Q99767) | pKd (APBA3_1, O96018) | pKd (DFNB31_3, Q9P202) | pKd (DVL3, Q92997) | pKd (FRMPD4, Q14CM0) | pKd (GRASP, Q7Z6J2) | pKd (GRIP2_3, Q9C0E4) | pKd (GRIP2_7, Q9C0E4) | pKd (HTRA4, P83105) | pKd (Inadl_2, Q8NI35) | pKd (LIN7B, Q9HAP6) | pKd (MAGI2_4, Q86UL8) | pKd (MAGI3_2, Q5TCQ9) | pKd (MAST2, Q6P0Q8) | pKd (MPDZ_10, O75970) | pKd (NHERF3_4, Q5T2W1) | pKd (PDLIM1, O00151) | pKd (PDZD7_3, Q9H5P4) | also measured
SAKVRTVTSV [RASL11B, Q9BPW5] | below the threshold | below the threshold | below the threshold | below the threshold | below the threshold | below the threshold | below the threshold | 4.54 | below the threshold | below the threshold | 4.06 | below the threshold | below the threshold | 4.19 | 5.74 | 5.3 | below the threshold | below the threshold | below the threshold | 4.68 | pKd (SIPA1L2, Q9P2F8): below the threshold; pKd (SNX27, Q96L92): 4.73; pKd (SYNJ2BP, P57105): 4.95; pKd (TJP2_1, Q9UDY2): 4.14
QGLAERISVL [PRKD2, Q9BZL6] | below the threshold | below the threshold | below the threshold | below the threshold | 4.26 | below the threshold | 3.83 | 4.73 | below the threshold | below the threshold | 4.06 | below the threshold | below the threshold | below the threshold | below the threshold | 5.53 | 3.76 | 3.73 | below the threshold | 5.21 | pKd (SIPA1L2, Q9P2F8): below the threshold; pKd (SNX27, Q96L92): 4.78; pKd (SYNJ2BP, P57105): below the threshold; pKd (TJP2_1, Q9UDY2): below the threshold
PAPSSGKDYV [CLDN1, O95832] | below the threshold | below the threshold | below the threshold | below the threshold | below the threshold | below the threshold | 3.59 | below the threshold | below the threshold | 3.63 | below the threshold | below the threshold | below the threshold | 3.54 | below the threshold | 3.84 | below the threshold | below the threshold | below the threshold | below the threshold | pKd (SIPA1L2, Q9P2F8): below the threshold; pKd (SNX27, Q96L92): 3.62; pKd (SYNJ2BP, P57105): below the threshold; pKd (TJP2_1, Q9UDY2): 3.71
PDGQCTVTEV [RNF146, Q9NTX7] | below the threshold | below the threshold | below the threshold | below the threshold | 3.99 | below the threshold | below the threshold | 4.7 | below the threshold | 3.56 | 4.36 | below the threshold | below the threshold | 4.38 | 4.21 | 5.28 | below the threshold | below the threshold | below the threshold | 5.09 | pKd (SIPA1L2, Q9P2F8): below the threshold; pKd (SNX27, Q96L92): 5.19; pKd (SYNJ2BP, P57105): 4.75; pKd (TJP2_1, Q9UDY2): below the threshold

Now from value to binder, other results behind:

pKd (APBA1_1, Q02410) | pKd (APBA2_1, Q99767) | pKd (APBA2_2, Q99767) | pKd (APBA3_1, O96018) | pKd (DFNB31_3, Q9P202) | pKd (DVL3, Q92997) | pKd (FRMPD4, Q14CM0) | pKd (GRASP, Q7Z6J2) | pKd (GRIP2_3, Q9C0E4) | pKd (GRIP2_7, Q9C0E4) | pKd (HTRA4, P83105) | pKd (Inadl_2, Q8NI35) | pKd (LIN7B, Q9HAP6) | pKd (MAGI2_4, Q86UL8) | pKd (MAGI3_2, Q5TCQ9) | pKd (MAST2, Q6P0Q8) | pKd (MPDZ_10, O75970) | pKd (NHERF3_4, Q5T2W1) | pKd (PDLIM1, O00151) | pKd (PDZD7_3, Q9H5P4) | Binder | also measured
below the threshold | below the threshold | below the threshold | below the threshold | below the threshold | below the threshold | below the threshold | below the threshold | below the threshold | below the threshold | below the threshold | below the threshold | below the threshold | below the threshold | below the threshold | below the threshold | below the threshold | below the threshold | below the threshold | below the threshold | NHSSSPETTA [TRMT13, Q9NUP7] | pKd (SIPA1L2, Q9P2F8): below the threshold; pKd (SNX27, Q96L92): below the threshold; pKd (SYNJ2BP, P57105): below the threshold; pKd (TJP2_1, Q9UDY2): below the threshold
below the threshold | below the threshold | below the threshold | below the threshold | below the threshold | 3.59 | 3.74 | 3.9 | below the threshold | 3.58 | below the threshold | below the threshold | 4.3 | 3.68 | 4.27 | 5.5 | 3.56 | below the threshold | 3.6 | 4.82 | EVEEFPETSV [TRPV3, Q8NET8] | pKd (SIPA1L2, Q9P2F8): 3.55; pKd (SNX27, Q96L92): 5.83; pKd (SYNJ2BP, P57105): 5.2; pKd (TJP2_1, Q9UDY2): below the threshold
